Blank lines part the entries; values can stand above or below the molecule they belong to.
Experiments:
[1] = molecular target: APEH-3Ss, acylpeptide hydrolase from Sulfolobus solfataricus coded by the gene sso2693 (Sulfolobus solfataricus P2); test: SEC; Superose 12 3.2/30; enzyme treated with 0.5 M GnHCl, column equilibrated with Tris-HCl 0.05 M pH 7.5 containing 0.5 M GnHCl
[2] = molecular target: APEH-3Ss, acylpeptide hydrolase from Sulfolobus solfataricus coded by the gene sso2693 (Sulfolobus solfataricus P2); test: SEC; Superose 12 3.2/30; enzyme treated with 0.5 M GnHCl, then dialysed extensively against Tris-HCl 0.05 M pH 7.5 before gel filtration
[3] = molecular target: APEH-3Ss, acylpeptide hydrolase from Sulfolobus solfataricus coded by the gene sso2693 (Sulfolobus solfataricus P2); test: SEC; gel filtration of the native purified enzyme on two columns (Superdex 200 HR 10/30; Superose 12 PC 3.2/30), calibrated with BioRad gel filtration standards
[4] = molecular target: APEH-3Ss, acylpeptide hydrolase from Sulfolobus solfataricus coded by the gene sso2693 (Sulfolobus solfataricus P2)
[5] = substrate: CC(=O)N[C@@H](C)C(=O)Nc1ccc([N+](=O)[O-])cc1; test: purified protein; assay type: biochemical, Saccharolobus solfataricus; details: 25 mM Tris-HCl pH 7.5, 90°C
[6] = substrate: CC(=O)N[C@@H](CC(C)C)C(=O)Nc1ccc([N+](=O)[O-])cc1; test: purified protein; assay type: biochemical, Saccharolobus solfataricus; details: 25 mM Tris-HCl pH 7.5, 90°C
[7] = substrate: CC(=O)N[C@@H](Cc1ccccc1)C(=O)Nc1ccc([N+](=O)[O-])cc1; test: purified protein; assay type: biochemical, Saccharolobus solfataricus; details: 25 mM Tris-HCl pH 7.5, 90°C

stoichiometry N [1]: 2 | stoichiometry N [2]: 3 | stoichiometry N [3]: 3
Molecule: APEH-3Ss, acylpeptide hydrolase from Sulfolobus solfataricus coded by the gene sso2693 (enzyme)

IC50 of inhibition of APEH-3Ss activity on Ac-L-pNA (0.2 mM); protease pre-incubated with increasing SsCEI for 30 min at 80°C, Tris-HCl 50 mM pH 7.5 [4]: 0.008 µM | IC50 of inhibition of APEH-3Ss activity on Suc-GGF-pNA (0.2 mM); protease pre-incubated with increasing SsCEI for 30 min at 80°C, Tris-HCl 50 mM pH 7.5 [4]: 0.02 µM
B1: SsCEI (Sulfolobus solfataricus chymotrypsin-elastase inhibitor) (natural protein)
chain: MNSESIYSMRVVSSAFKNEDFIPIKYTCDGQDLSPELEWDLVTNAKSYAIIVEDPDAPGGTFIHWVIYNITTNRLPEGVPRLYKSQYGVQGVNDFGNIGYNGPCPPKTHPPHRYYFYVYAIDTILLEIKNINADKLKSLMEGHGIERGFVMGKYKRK

B2: APEH-3Ss (Saccharolobus solfataricus P2) (protein)
chain: MKPEDYYYSIKLVPEITIENGKLFHVETWIEEDKYKSSIYLNLKRITFQGNESSPKFNNDKLYFIRNEEAKSSLLEAQLYGEPKVIFTFSGKISKYEFHNKGILVIAEENTDKTLPFRAEKIKYRFDSRGLLRARQSLYLFDGKDLRRLVTGNFDVTDLATNGNRVVISATKDGDDYGLGNLYEVNIETGELNRITKEDGTVQAIAMNSEGKIAFLGHRKGLTPWASLEIMLPEEGKSYMCGKTCGNKVLTDLFDGVKDRIVFEKDLILSLGQEGGTSHIYQISDNKVDKVTSGNIMVRGFDYSNSELAYFYSTPEKPVILKYRDIEYDPNPNIKGYTPERITVNSNGVEVEGWSIIKDPNAPTILFIHGGPHMAYGYGYFIEFQFFVDNGFNVIYANPRGSQGYGEEFAKACVGDWGGKDFEDLMNFVNTVKERYSLKGKFGITGGSYGGFMTNWIVTKTSMFSAAISERSISNLVSMCGTSDIGFWFNAIESGIADPWSTEGIEKLMKMSPIYYVKNVKTPTMLIHGEEDYRCPIEQAEQFYVALKMQGVPTTLVRYQGDSHEHARRGKPKNMIDRLKTKLEWFSKYLL
notes: native enzyme purified from S. solfataricus P2 cells; full length 591 aa, not processed; N-terminus MKPEDYYYSI; 64 kDa by SDS-PAGE; homotrimer 192 kDa
Km [5]: 800 ± 60 µM | kcat [5]: 14 ± 0.1 s⁻¹ | kcat/Km [5]: 17500 ± 100 M⁻¹ s⁻¹ | Km [6]: 600 ± 50 µM | kcat [6]: 18 ± 0.1 s⁻¹ | kcat/Km [6]: 32700 ± 400 M⁻¹ s⁻¹ | Km [7]: 40 µM | kcat [7]: 0.08 ± 0.005 s⁻¹ | kcat/Km [7]: 2000 ± 10 M⁻¹ s⁻¹

— PMC3360023, “Identification and Characterisation of a Novel Acylpeptide Hydrolase from Sulfolobus Solfataricus: Structural and Functional Insights” (PLoS ONE, 2012)
